Key:
[1] = tested on: T-47D breast cancer cells; test: Fluorimetric invasion assay (QCM cell invasion, ECM); format: cell-based; settings: for T-47D cell invasion through ECM: scFv alone, 50 and 250 nmol/L, 24 h
Protocol: The method used is QCM™ Cell invasion assay (Chemicon Cat No. ECM555). This uses fluorimetric detection of cells which have broken through a reconstituted basement membrane matrix proteins (ECM) derived from the Engelbreth-Holm-Swam (EHS) mouse tumour (Repesh LA (1989) Invasion Metastasis 9: 192-208)
ECM-coated inserts were placed in 96-well plates and 100 μl of prewarmed serum-free medium added to the interior of the inserts in order to hydrate the ECM layer over 1-2 h at room temperature. Media was removed and 150 μl of serum free medium added to the wells of the 96-well plate housing the inserts. 100 μl of medium containing 10^5 cells/per insert was then introduced. The plate was covered and incubated at 37 C in a 5% CO2/95% air humidified incubator for 24 h. After removing cells from inside the insert and rinsing with PBS, the insert was replaced into a 96-well plate containing Cell Detachment Solution and incubated at 37 C for 30 min. Cells that had invaded through the ECM to the bottom of the insert were, in this way, dislodged from the insert for subsequent lysis and measurement of fluorescence using a 480/520 filter set in a Fluostar Optima fluorimeter (BMG Labtech), according to manufacturer's instructions.

[2] = Body weight, aldosterone and activity of hollow fiber mice; format: in vivo, nu/nu mice

B1: R6313/G2: murine scFv analogue of the 6313/G2 anti-AT1 receptor monoclonal antibody variable domains, SEQ ID NO:15 (protein)
scFv: YAAQPAMAQVKLQQSGPELEKPGASVKISCKASGYSFTGYNMNWVKQSNGKSLEWIGNIDPYYGGTTYNQKFKGKATLTVDKSSSTAYMQLKSLTSEDSAVYYCAREVDYWGQGTTVTVSSGGGGSGGGGSGGGGSDIELTQSPASLAVSLGQRATISYRASKSVSTSGYSYMHWNQQKPGQPPRLLIYLVSNLESGVPARFSGSGSGTDFTLNIHPVEEEDAATYYCQHIRELTRSEGTKLEIKRAAAGAPVPY
modifications: 12D
[1]; 250 nmol/L R6313/G2 with angiotensin II 100 nmol/L, 24 hour assay period
  inhibition of cell invasion: up to 25%
[1]; 250 nmol/L scFv, angiotensin II 100 nmol/L
  effect on T-47D cell invasion in the presence of angiotensin II: significantly more pronounced
[1]
  T-47D cell invasion through ECM: inhibits T-47D cell invasion
[1]; listed as R6313/G2 clone12D
  T-47D cell invasion through ECM: significantly inhibits T-47D cell invasion
[2]; 13 nmol/kg 2× per day
  animal activity: no effect
  body weight: no effect
  circulating aldosterone concentrations: no effect
[2]; hollow fiber mice, during the period of treatment
  body weights of the experimental animals: no changes
